Columns and labels:
Type in all cases: cell-based, human
JAK2 V617F SET2 cells = test: Cell proliferation, trypan blue exclusion; details: 2, 10 or 20 μg/mL
Method: (§1) A. Cytokine dependent TF-1 TpoR cells with an overexpression of WT CALR cultured in the absence of TPO, 10 ng/ml hTPO and 10 or 20 μg/mL 4D7 anti-mutant CALR antibody or 20 μg/mL control IgG antibody for 5 days and the number of trypan blue negative cells were counted every 24 hours (n=3). B. Cytokine dependent TF-1 CALR^del52 cells, lacking TpoR were cultured in the presence of 2 ng/mL GM-CSF and 10 or 20 μg/mL 4D7 or 20 μg/mL control IgG antibody (n=3). C. Cytokine dependent TF-1 CALR^del61 cells, lacking TpoR were cultured in the presence of 2 ng/ml GM-CSF and 10 or 20 μg/mL 4D7 or 20 μg/mL control IgG antibody (n=3). D. MARIMO cells from which the CALR^del61 mutation was originally amplified were cultured in the presence of 2, 10 or 20 μg/mL 4D7 or 20 μg/mL control IgG antibody (n=3). E. Cytokine independent SET2 cells which harbour the pathogenic JAK2^V617F mutation were cultured in the presence of 2, 10 or 20 μg/mL 4D7 or 20 μg/mL control IgG antibody (n=3). F. Cytokine independent TF-1 PTPN11^E76K cells were cultured in the presence of 10 or 20 μg/mL 4D7 or 20 μg/mL control IgG antibody (n=3).
(§2) In brief, cells were seeded at 5×10^4/mL in standard growth media, with any necessary cytokines, and the addition of 20 μg/mL IgG or 2, 10 or 20 μg/mL 4D7. Cells were seeded in triplicate and each well was counted in triplicate every 24 hours for 5 days using trypan blue exclusion.

MARIMO cells = test: Cell proliferation, trypan blue exclusion; details: 2, 10 or 20 μg/mL
Method: as §1, §2

[1] = test system: TF-1 CALR^del52 cells, lacking TpoR; test: Cell proliferation, trypan blue exclusion; details: 2 ng/mL GM-CSF; 10 or 20 μg/mL
Method: as §1, §2

[2] = test system: TF-1 CALR^del61 cells, lacking TpoR; test: Cell proliferation, trypan blue exclusion; details: 2 ng/ml GM-CSF; 10 or 20 μg/mL
Method: as §1, §2

[3] = test system: TF-1 cells with overexpression of wild type CALR; test: Cell proliferation, trypan blue exclusion; details: 10 or 20 μg/mL; 10 ng/ml hTPO
Method: as §1, §2

[4] = test system: TF-1 expressing the PTPN11 E76K mutation; test: Cell proliferation, trypan blue exclusion; details: 10 or 20 μg/mL
Method: as §1, §2

[5] = test system: TF-1 TpoR CALR^del61 cells; test: Cell cycle analysis by flow cytometry (propidium iodide); details: 20 μg/mL, 48 hours; P=0.001
Method: Cell cycle analysis was carried out by flow cytometry. Briefly, TF-1 TpoR and TF-1 TpoR CALR^del61 cells were seeded at a concentration of ˜2×10^5 per well in triplicate under standard culture conditions, with the addition of 20 μg/mL IgG or 4D7. Cells were treated for 48 hours and were fixed by 70% (v/v) ethanol at 4° C. overnight. Fixed cells were rinsed twice with PBS and stained with 50 μg/mL propridium iodide (PI: ThermoFisher)+100 μg/mL RNAse A (QIAGEN). Cells were incubated for 30 minutes at RT in the dark and analysed on the BD FACSCantoII (BD Biosciences).

B1: 4D7: rat monoclonal IgG2a antibody against the mutant CALR neoepitope; VH SEQ ID NO: 5, VL SEQ ID NO: 7 (antibody, listed as Rattus rattus, V domains shown)
VH: QVQLQQSGAELAKPGSSVKISCKASGYTFTNYDMSWIKQRPGQALEWIGAINPGNGVTDYNEKFRGKATLTVDKSSSTAFMQLSSLTPEDTAVYHCAREYRDNYGYFDYWGQGVMVTVSS
VL: DIVLTQTPVSLSVTLGDQASISCRSSQSLEYSDGYTYLDWFLQKPGQSPQLLIYEVSSRFSGVPDRFIGRGSGTDFTLKISRVEPEDLGVYYCFQATHDPFTFGSGTKLEIK
inhibition of proliferation (JAK2 V617F SET2 cells): no inhibition
inhibition of proliferation (MARIMO cells): did not show inhibition
effect on proliferation [1]: unaffected
effect on proliferation [2]: unaffected
inhibition of proliferation [3]: No inhibition
inhibition of proliferation [4]: no inhibition
sub-Go fraction compared to IgG control [5]: significant increase

— patent US20250236667A1, “ANTIBODIES TO MUTANT CALRETICULIN AND USES THEREOF” (CENTRAL ADELAIDE LOCAL HEALTH NETWORK INC, priority 2021, published 2025)
